Test results: US20230416396A1 (Regeneron, published 2023)

Columns and labels:
[1] = biological target: T1, human CD38 endogenously expressed on MOLP8 cells (human, UniProt P28907 1-300); test: flow cytometry on MOLP8 cells (endogenous hCD38), APC anti-human secondary
T1 construct: whole, on cells; also called hCD38
Method: The ability of the multispecific antigen binding molecules to bind cells was assessed using flow cytometry. Cell lines were chosen to determine the ability of both the anti-CD38 and anti-4-1BB arms to bind their targets. […] Binding was detected by using a labeled secondary antibody and measuring fluorescence on a flow cytometer.
HEK293 cells were lifted with trypsin, washed and resuspend in stain buffer (2% FBS in PBS). MOLP8 cells were washed and resuspended in stain buffer. Cells were added to wells of a 96 well V-bottom plate (3×10⁵ cells/well). A 1:4, 9-point, dose titration of test antibodies was diluted in stain buffer and added to cells to a final concentration ranging from 610 fM to 10 nM (a “no antibody” control was included as the ninth point (153fM), labeled as “secondary only”). Cells and antibodies were incubated for 30 min on ice and then washed in stain buffer. Cells were resuspended in 2 ug/ml allophycocyanin (APC) conjugated goat-anti human secondary antibody and incubated for 30 min on ice. Cells were then washed and resuspended in viability dye (according to the manufacturer's protocol) and incubated for 30 min on ice. Cells were then washed with stain buffer and resuspended in 2% PFA for 30 min on ice. After washing, cells were filtered and analyzed by flow cytometry to determine the geometric mean fluorescence intensity (gMFI), which was subsequently plotted using GraphPad Prism software. EC₅₀ values of the antibodies were determined from a 4-parameter logistic equation over a 9-point dose response curve (including secondary only control, representing the ninth point).

[2] = biological target: T2, human 4-1BB expressed with a C-terminal myc-myc-hexahistidine tag (human, UniProt Q07011 24-186); test: SPR Biacore 8k, antibody captured by anti-human Fc, h4-1BB.mmH as analyte, 25 C
T2 construct: also called h4-1BB.mmH; REGN3584; not shown: C-terminal myc-myc-hexahistidine tag
Method: Equilibrium dissociation constants (KD values) for human 4-1BB expressed with a C-terminal myc-myc-hexahistidine tag (h4-1BB.mmH, REGN3584) or human 4-1BB expressed with a C-terminal murine Fc tag (h4-1BB.mFc, REGN3585) binding to purified anti-CD38×4-1BB 1+2 antibodies were determined using a real-time surface plasmon resonance biosensor using a Biacore 8k instrument. The CM5 Biacore sensor surface was derivatized by amine coupling with a monoclonal mouse anti-human Fc antibody (REGN2567). All Biacore binding studies were performed in a buffer composed of 0.01M HEPES pH 7.4, 0.15M NaCl, 3 mM EDTA, 0.05% v/v Surfactant P20 (HBS-EP running buffer). […] Antibody-reagent association was monitored for 5 minutes while dissociation in HBS-EP running buffer was monitored for 10 minutes. At the end of each cycle, the anti-CD38×4-1BB 1+2 antibody capture surface was regenerated using a 10 second injection of 20 mM phosphoric acid. All binding kinetics experiments were performed at 25° C.
Kinetic association (kₐ) and dissociation (kd) rate constants were determined by fitting the real-time sensorgrams to a 1:1 binding model using Cytiva Insight curve fitting software. Binding dissociation equilibrium constants (KD) and dissociative half-lives (t/2) were calculated from the kinetic rate constants as: […]

T2 sequence (Q07011 24-186 limits assumed): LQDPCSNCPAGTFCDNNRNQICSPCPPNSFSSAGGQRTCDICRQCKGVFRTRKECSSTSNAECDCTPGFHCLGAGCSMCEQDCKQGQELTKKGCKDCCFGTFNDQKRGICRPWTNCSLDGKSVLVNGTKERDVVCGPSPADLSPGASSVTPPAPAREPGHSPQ

MAX gMFI [1]: 120000 gMFI | 100 nM h4-1BB.mmH Bind (RU) [2]: 86.1 RU | Kd [2]: 16.5 nM | koff [2]: 0.00533 s⁻¹ | kon [2]: 324000 M⁻¹ s⁻¹ | t½ [2]: 2.2 min
B1: REGN7647 (bispecific antibody, human IgG4 S228P, kappa)
heavy 1: EVQLVESGGGLVQPGRSLRLSCGASGFTFDDYVMHWVRQIPGKGLEWVAGISWNSGSIGYADSVKGRFTISRDNAKNSLYLQMNSLRAEDTALYFCAKDHIDPYSSSLYYYYGMDVWGQGTTVTVSSASTKGPSVFPLAPCSRSTSESTAALGCLVKDYFPEPVTVSWNSGALTSGVHTFPAVLQSSGLYSLSSVVTVPSSSLGTKTYTCNVDHKPSNTKVDKRVESKYGPPGGGGSGGGGSGGGGSEVQLVESGGGLVQPGRSLRLSCGASGFTFDDYVMHWVRQIPGKGLEWVAGISWNSGSIGYADSVKGRFTISRDNAKNSLYLQMNSLRAEDTALYFCAKDHIDPYSSSLYYYYGMDVWGQGTTVTVSSASTKGPSVFPLAPCSRSTSESTAALGCLVKDYFPEPVTVSWNSGALTSGVHTFPAVLQSSGLYSLSSVVTVPSSSLGTKTYTCNVDHKPSNTKVDKRVESKYGPPCPPCPAPPVAGPSVFLFPPKPKDTLMISRTPEVTCVVVDVSQEDPEVQFNWYVDGVEVHNAKTKPREEQFNSTYRVVSVLTVLHQDWLNGKEYKCKVSNKGLPSSIEKTISKAKGQPREPQVYTLPPSQEEMTKNQVSLTCLVKGFYPSDIAVEWESNGQPENNYKTTPPVLDSDGSFFLYSRLTVDKSRWQEGNVFSCSVMHEALHNRFTQKSLSLSPGK
heavy 2: EVQLVESGGGLVQPGRSLRLSCAASGFTFDDYAMHWVRQAPGKGLEWVSGISWKSDNIGYADSVKGRFTISRDNAKNSLYLQMNSLRAEDTALYYCAKALGGWKFDYYYGMDVWGQGTTVTVSSASTKGPSVFPLAPCSRSTSESTAALGCLVKDYFPEPVTVSWNSGALTSGVHTFPAVLQSSGLYSLSSVVTVPSSSLGTKTYTCNVDHKPSNTKVDKRVESKYGPPCPPCPAPPVAGPSVFLFPPKPKDTLMISRTPEVTCVVVDVSQEDPEVQFNWYVDGVEVHNAKTKPREEQFNSTYRVVSVLTVLHQDWLNGKEYKCKVSNKGLPSSIEKTISKAKGQPREPQVYTLPPSQEEMTKNQVSLTCLVKGFYPSDIAVEWESNGQPENNYKTTPPVLDSDGSFFLYSRLTVDKSRWQEGNVFSCSVMHEALHNHYTQKSLSLSLGK
light: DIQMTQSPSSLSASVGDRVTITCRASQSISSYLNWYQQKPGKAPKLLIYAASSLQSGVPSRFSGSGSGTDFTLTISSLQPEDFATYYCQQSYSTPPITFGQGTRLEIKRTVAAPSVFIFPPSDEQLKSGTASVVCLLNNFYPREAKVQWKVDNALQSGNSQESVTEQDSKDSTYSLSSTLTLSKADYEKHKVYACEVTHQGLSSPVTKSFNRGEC
notes: 1+2 format, hIgG4P-PVA; The linker between the two 4-1BB Fabs is (G4S)3v15; also called CD38x4-1BB (1 + 2), (G4S)3v15; 26812P2 x 35333P2 (IN) + 35333P2 (OUT)
